Assay results from PMC9482650, “Quantitative fragmentomics allow affinity mapping of interactomes” (Nature Communications, 2022).

T1: DFNB31_1, Q9P202
T1 sequence (Q9P202 135-233, limits assumed, looked up): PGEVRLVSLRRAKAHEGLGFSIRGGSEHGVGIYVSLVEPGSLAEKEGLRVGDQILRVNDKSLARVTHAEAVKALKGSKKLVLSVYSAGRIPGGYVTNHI

T2: NHERF3_1, Q5T2W1
T2 sequence (Q5T2W1 4-100, limits assumed, looked up): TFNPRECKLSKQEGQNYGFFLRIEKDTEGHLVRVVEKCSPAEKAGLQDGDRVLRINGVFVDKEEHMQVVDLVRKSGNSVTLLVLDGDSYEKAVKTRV

T3: SIPA1L2, Q9P2F8
T3 sequence (Q9P2F8 945-1036, limits assumed, looked up): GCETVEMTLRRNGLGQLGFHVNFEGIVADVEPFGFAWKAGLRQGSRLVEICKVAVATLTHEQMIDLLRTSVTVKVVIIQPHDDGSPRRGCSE

T4: PDZD7_3, Q9H5P4
T4 sequence (Q9H5P4 857-944, limits assumed, looked up): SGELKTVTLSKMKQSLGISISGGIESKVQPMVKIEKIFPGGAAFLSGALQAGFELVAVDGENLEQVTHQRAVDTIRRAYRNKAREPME

T5: DFNB31_2, Q9P202
T5 sequence (Q9P202 274-371, limits assumed, looked up): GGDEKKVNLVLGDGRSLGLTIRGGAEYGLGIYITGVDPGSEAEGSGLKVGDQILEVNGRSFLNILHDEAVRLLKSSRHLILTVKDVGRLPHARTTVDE

T6: TJP3_3, O95049
T6 sequence (O95049 375-456, limits assumed, looked up): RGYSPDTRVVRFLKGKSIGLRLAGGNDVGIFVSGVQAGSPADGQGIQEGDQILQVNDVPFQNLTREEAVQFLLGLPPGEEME

T7: APBA1_2, Q02410
T7 sequence (Q02410 742-832, limits assumed, looked up): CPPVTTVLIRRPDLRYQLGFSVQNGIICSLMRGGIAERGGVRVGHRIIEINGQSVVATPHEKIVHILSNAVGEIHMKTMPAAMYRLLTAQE

T8: LRRC7, Q96NW7
T8 sequence (Q96NW7 1440-1537, limits assumed, looked up): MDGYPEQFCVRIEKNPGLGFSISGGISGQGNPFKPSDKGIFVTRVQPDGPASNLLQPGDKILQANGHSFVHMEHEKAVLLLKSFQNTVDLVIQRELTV

T9: LNX2_3, Q8N448
T9 sequence (Q8N448 463-564, limits assumed, looked up): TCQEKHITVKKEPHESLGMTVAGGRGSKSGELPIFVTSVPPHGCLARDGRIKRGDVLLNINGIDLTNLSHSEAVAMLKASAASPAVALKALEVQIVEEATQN

T10: GRIP1_5, Q9Y3R0
T10 sequence (Q9Y3R0 568-668, limits assumed, looked up): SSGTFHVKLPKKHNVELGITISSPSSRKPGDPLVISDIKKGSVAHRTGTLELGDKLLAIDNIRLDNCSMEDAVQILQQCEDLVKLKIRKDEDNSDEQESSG

T11: APBA2_1, Q99767
T11 sequence (Q99767 563-664, limits assumed, looked up): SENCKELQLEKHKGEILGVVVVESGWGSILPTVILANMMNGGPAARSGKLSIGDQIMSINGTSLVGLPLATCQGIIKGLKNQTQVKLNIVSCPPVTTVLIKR

T12: TIAM2, Q8IVF5
T12 sequence (Q8IVF5 885-986, limits assumed, looked up): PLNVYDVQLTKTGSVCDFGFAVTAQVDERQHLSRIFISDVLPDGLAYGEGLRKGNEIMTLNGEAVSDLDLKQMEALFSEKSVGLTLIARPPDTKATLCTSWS

T13: HTRA4, P83105
T13 sequence (P83105 378-476, limits assumed, looked up): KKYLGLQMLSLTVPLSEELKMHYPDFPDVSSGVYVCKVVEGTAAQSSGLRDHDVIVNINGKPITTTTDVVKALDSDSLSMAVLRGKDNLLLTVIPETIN


Key:
Test in all cases: holdup assay
Design in all cases: key: below the threshold = too weak to quantify, mostly under pKd 3.1 to 4
Conditions in all cases: plain residues with an end cap or a label only (N-terminal biotin on a linker: ado-ado)
DFNB31_1, Q9P202 = molecular target: T1, DFNB31_1, Q9P202
NHERF3_1, Q5T2W1 = molecular target: T2, NHERF3_1, Q5T2W1
SIPA1L2, Q9P2F8 = molecular target: T3, SIPA1L2, Q9P2F8
PDZD7_3, Q9H5P4 = molecular target: T4, PDZD7_3, Q9H5P4
DFNB31_2, Q9P202 = molecular target: T5, DFNB31_2, Q9P202
SCRIB_1, Q14160 = molecular target: SCRIB_1, Q14160
Chain of SCRIB_1, Q14160 (Q14160 718-814): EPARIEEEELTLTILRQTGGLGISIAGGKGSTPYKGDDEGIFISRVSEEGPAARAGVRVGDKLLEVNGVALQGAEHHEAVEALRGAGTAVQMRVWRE

TJP3_3, O95049 = molecular target: T6, TJP3_3, O95049
GRIP2_6, Q9C0E4 = molecular target: GRIP2_6, Q9C0E4
Chain of GRIP2_6, Q9C0E4 (Q9C0E4 648-740): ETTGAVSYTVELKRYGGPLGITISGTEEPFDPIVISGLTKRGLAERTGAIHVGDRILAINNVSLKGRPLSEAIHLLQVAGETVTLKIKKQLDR

APBA1_2, Q02410 = molecular target: T7, APBA1_2, Q02410
NHERF4_2, Q86UT5 = molecular target: NHERF4_2, Q86UT5
Chain of NHERF4_2, Q86UT5 (Q86UT5 220-308): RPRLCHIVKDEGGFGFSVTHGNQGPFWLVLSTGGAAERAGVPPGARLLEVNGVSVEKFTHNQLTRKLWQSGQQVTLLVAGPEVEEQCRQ

LRRC7, Q96NW7 = molecular target: T8, LRRC7, Q96NW7
LNX2_3, Q8N448 = molecular target: T9, LNX2_3, Q8N448
MAST1, Q9Y2H9 = molecular target: MAST1, Q9Y2H9
Chain of MAST1, Q9Y2H9 (Q9Y2H9 962-1065): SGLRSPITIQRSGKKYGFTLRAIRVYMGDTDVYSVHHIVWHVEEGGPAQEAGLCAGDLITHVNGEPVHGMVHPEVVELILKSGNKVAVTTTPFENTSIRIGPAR

CASK, O14936 = molecular target: CASK, O14936
Chain of CASK, O14936 (O14936 487-570): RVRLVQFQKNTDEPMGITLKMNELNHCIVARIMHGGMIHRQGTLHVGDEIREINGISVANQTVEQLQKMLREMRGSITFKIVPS

MAGI2_6, Q86UL8 = molecular target: MAGI2_6, Q86UL8
Chain of MAGI2_6, Q86UL8 (Q86UL8 1141-1229): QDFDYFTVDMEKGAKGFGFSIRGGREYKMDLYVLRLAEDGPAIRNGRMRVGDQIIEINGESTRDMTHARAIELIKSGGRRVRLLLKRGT

DLG1_2, Q12959 = molecular target: DLG1_2, Q12959
GRIP1_5, Q9Y3R0 = molecular target: T10, GRIP1_5, Q9Y3R0
APBA2_1, Q99767 = molecular target: T11, APBA2_1, Q99767
DLG1_3, Q12959 = molecular target: DLG1_3, Q12959
TIAM2, Q8IVF5 = molecular target: T12, TIAM2, Q8IVF5
HTRA4, P83105 = molecular target: T13, HTRA4, P83105
NHERF2_2, Q15599 = molecular target: NHERF2_2, Q15599
Chain of NHERF2_2, Q15599 (Q15599 142-238): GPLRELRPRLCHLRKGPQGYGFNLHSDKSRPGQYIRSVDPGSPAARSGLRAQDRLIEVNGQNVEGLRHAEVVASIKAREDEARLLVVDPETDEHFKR

Inadl_3, Q8NI35 = molecular target: Inadl_3, Q8NI35
Chain of Inadl_3, Q8NI35 (Q8NI35 359-469): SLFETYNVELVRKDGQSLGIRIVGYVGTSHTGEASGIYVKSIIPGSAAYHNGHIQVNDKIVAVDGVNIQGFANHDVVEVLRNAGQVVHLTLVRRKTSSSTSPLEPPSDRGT

DLG1_1, Q12959 = molecular target: DLG1_1, Q12959
GIPC2, Q8TF65 = molecular target: GIPC2, Q8TF65
Chain of GIPC2, Q8TF65 (Q8TF65 112-203): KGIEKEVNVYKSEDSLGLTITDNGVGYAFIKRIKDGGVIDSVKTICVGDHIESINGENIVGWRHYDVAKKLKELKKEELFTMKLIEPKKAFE

Row | Binder | pKd (DFNB31_1, Q9P202) | pKd (NHERF3_1, Q5T2W1) | pKd (SIPA1L2, Q9P2F8) | pKd (PDZD7_3, Q9H5P4) | pKd (DFNB31_2, Q9P202) | pKd (SCRIB_1, Q14160) | pKd (TJP3_3, O95049) | pKd (GRIP2_6, Q9C0E4) | pKd (APBA1_2, Q02410) | pKd (NHERF4_2, Q86UT5) | pKd (LRRC7, Q96NW7) | pKd (LNX2_3, Q8N448) | pKd (MAST1, Q9Y2H9) | pKd (CASK, O14936) | pKd (MAGI2_6, Q86UL8) | pKd (DLG1_2, Q12959) | pKd (GRIP1_5, Q9Y3R0) | pKd (APBA2_1, Q99767) | pKd (DLG1_3, Q12959) | pKd (TIAM2, Q8IVF5) | other results
1 | LGHTPFVDEL [UQCRC2, P22695] | 3.5 | 4.73 | below the threshold | below the threshold | below the threshold | below the threshold | below the threshold | below the threshold | 3.75 | below the threshold | below the threshold | below the threshold | 4.12 | below the threshold | below the threshold | below the threshold | below the threshold | below the threshold | below the threshold | below the threshold | pKd (HTRA4, P83105): 3.98; pKd (NHERF2_2, Q15599): 4.34; pKd (Inadl_3, Q8NI35): 3.59; pKd (DLG1_1, Q12959): below the threshold; pKd (GIPC2, Q8TF65): below the threshold
2 | QNRIITKTDV [SMCHD1, A6NHR9] | below the threshold | below the threshold | below the threshold | 4.13 | below the threshold | 3.88 | below the threshold | 3.49 | 3.9 | below the threshold | below the threshold | below the threshold | below the threshold | below the threshold | below the threshold | 4.23 | below the threshold | below the threshold | below the threshold | below the threshold | pKd (HTRA4, P83105): below the threshold; pKd (NHERF2_2, Q15599): below the threshold; pKd (Inadl_3, Q8NI35): below the threshold; pKd (DLG1_1, Q12959): 3.63; pKd (GIPC2, Q8TF65): below the threshold
3 | GDGLDDEIAV [NOS1AP, O75052] | below the threshold | below the threshold | below the threshold | below the threshold | below the threshold | below the threshold | below the threshold | below the threshold | below the threshold | below the threshold | below the threshold | below the threshold | 3.72 | below the threshold | below the threshold | below the threshold | below the threshold | below the threshold | below the threshold | 3.8 | pKd (HTRA4, P83105): 3.9; pKd (NHERF2_2, Q15599): below the threshold; pKd (Inadl_3, Q8NI35): below the threshold; pKd (DLG1_1, Q12959): below the threshold; pKd (GIPC2, Q8TF65): below the threshold
4 | YPKQMPLSQV [FZD8, Q9H461] | 3.59 | below the threshold | below the threshold | 4.17 | below the threshold | below the threshold | below the threshold | below the threshold | 3.81 | below the threshold | below the threshold | below the threshold | 4.09 | below the threshold | below the threshold | below the threshold | below the threshold | below the threshold | 3.64 | below the threshold | pKd (HTRA4, P83105): 3.94; pKd (NHERF2_2, Q15599): below the threshold; pKd (Inadl_3, Q8NI35): below the threshold; pKd (DLG1_1, Q12959): below the threshold; pKd (GIPC2, Q8TF65): below the threshold
